From article PMC4430413

Target: monomeric Uox conjugated to HSA (HSA-conjugated Uox-W160.174AzF subunit of Uox-HSA) (Aspergillus flavus | human) (UniProt P02768)
Test: co-purification by ion exchange chromatography, read by SDS-PAGE

Sequence of UniProt P02768 (P02768 whole entry, looked up): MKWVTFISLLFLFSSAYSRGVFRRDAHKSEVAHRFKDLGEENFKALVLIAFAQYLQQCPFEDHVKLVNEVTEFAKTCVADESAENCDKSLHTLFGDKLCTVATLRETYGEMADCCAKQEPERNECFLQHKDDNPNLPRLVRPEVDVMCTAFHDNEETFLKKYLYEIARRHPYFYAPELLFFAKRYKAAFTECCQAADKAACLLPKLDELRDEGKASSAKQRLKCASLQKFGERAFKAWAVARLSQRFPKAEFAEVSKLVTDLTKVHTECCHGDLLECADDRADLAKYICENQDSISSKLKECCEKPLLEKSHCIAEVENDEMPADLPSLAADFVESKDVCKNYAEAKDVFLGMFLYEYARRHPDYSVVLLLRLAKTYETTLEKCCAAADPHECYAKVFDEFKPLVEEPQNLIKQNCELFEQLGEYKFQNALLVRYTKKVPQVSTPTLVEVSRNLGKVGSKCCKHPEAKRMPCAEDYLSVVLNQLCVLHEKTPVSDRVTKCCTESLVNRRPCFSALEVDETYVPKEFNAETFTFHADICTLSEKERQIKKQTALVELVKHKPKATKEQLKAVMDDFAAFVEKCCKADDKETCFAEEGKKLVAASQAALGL

AzF-incorporated urate oxidase (Uox-W160.174AzF) (enzyme)
molar ratio of unreacted Uox monomer to monomeric Uox conjugated to HSA: 2.5
